Measured values published in PMC6767301, “Polyamines Disrupt the KaiABC Oscillator by Inducing Protein Denaturation” (Molecules, 2019).

B1: KaiB (natural protein, Synechococcus elongatus PCC 7942, UniProt Q79PF5 1-102, looked up)
chain: MSPRKTYILKLYVAGNTPNSVRALKTLKNILEVEFQGVYALKVIDVLKNPQLAEEDKILATPTLAKVLPLPVRRIIGDLSDREKVLIGLDLLYGELQDSDDF
notes: KaiB, Synechococcus elongatus PCC 7942; A few vector residues may remain after PreScission cleavage (surmised); also called Kai proteins; clock proteins; source: E. coli, purified (GSH resin, GST removed by PreScission protease, size-exclusion chromatography)
B2: KaiC (natural protein, Synechococcus elongatus PCC 7942, UniProt Q79PF4 1-519, looked up)
chain: MTSAEMTSPNNNSEHQAIAKMRTMIEGFDDISHGGLPIGRSTLVSGTSGTGKTLFSIQFLYNGIIEFDEPGVFVTFEETPQDIIKNARSFGWDLAKLVDEGKLFILDASPDPEGQEVVGGFDLSALIERINYAIQKYRARRVSIDSVTSVFQQYDASSVVRRELFRLVARLKQIGATTVMTTERIEEYGPIARYGVEEFVSDNVVILRNVLEGERRRRTLEILKLRGTSHMKGEYPFTITDHGINIFPLGAMRLTQRSSNVRVSSGVVRLDEMCGGGFFKDSIILATGATGTGKTLLVSRFVENACANKERAILFAYEESRAQLLRNAYSWGMDFEEMERQNLLKIVCAYPESAGLEDHLQIIKSEINDFKPARIAIDSLSALARGVSNNAFRQFVIGVTGYAKQEEITGLFTNTSDQFMGAHSITDSHISTITDTIILLQYVEIRGEMSRAINVFKMRGSWHDKAIREFMISDKGPDIKDSFRNFERIISGSPTRITVDEKSELSRIVRGVQEKGPES
notes: KaiC, Synechococcus elongatus PCC 7942; The sample is a mixture of phosphorylated and de-phosphorylated KaiC; A few vector residues may remain after PreScission cleavage (surmised); also called Kai proteins; clock proteins; source: E. coli, purified (GSH resin, GST removed by PreScission protease, size-exclusion chromatography)
B3: KaiA (natural protein, Synechococcus elongatus PCC 7942, UniProt Q79PF6 1-284, looked up)
chain: MLSQIAICIWVESTAILQDCQRALSADRYQLQVCESGEMLLEYAQTHRDQIDCLILVAANPSFRAVVQQLCFEGVVVPAIVVGDRDSEDPDEPAKEQLYHSAELHLGIHQLEQLPYQVDAALAEFLRLAPVETMADHIMLMGANHDPELSSQQRDLAQRLQERLGYLGVYYKRDPDRFLRNLPAYESQKLHQAMQTSYREIVLSYFSPNSNLNQSIDNFVNMAFFADVPVTKVVEIHMELMDEFAKKLRVEGRSEDILLDYRLTLIDVIAHLCEMYRRSIPRET
notes: KaiA, Synechococcus elongatus PCC 7942; A few vector residues may remain after PreScission cleavage (surmised); also called Kai proteins; clock proteins; source: E. coli, purified (GSH resin, GST removed by PreScission protease, size-exclusion chromatography)

Target: the molecule itself
Experiment: native gel or EMSA; 6% native PAGE of each Kai protein after 4 h of incubation at 30 °C with polyamines (putrescine, spermidine, spermine); 50 mM Tris-HCl pH 8.0, 150 mM NaCl, 5 mM ATP, 5 mM MgCl2, 0.01% Tween-20; total protein 1.0 mg/mL

Binding result, binds:
B1
B2
B3
